This is an account of results in patent US20080064079.

The target in data set [1] is T1, Bz-Ala-Ala-Tyr-Arg-His-Ala-Gly.
T1 chain: AAYRHAG

The target in data set [2] is N-alpha-benzoylated peptides of SEQ ID NOs: 3-19.

B1: trypsin variant Tn K60E, E151H, N143H, D189K (protein)
chain: IVGGYTCQENSVPYQVSLNSGYHFCGGSLINDQWVVSAAHCYESRIQVRLGEHNINVLEGNEQFVNAAKIIKHPNFDRKTLNNDIMLIKLSSPVKLNARVATVALPSSCAPAGTQCLISGWGHTLSSGVNHPDLLQCLDAPLLPQADCEASYPGKITDNMVCVGFLEGGKKSCQGDSGGPVVCNGELQGIVSWGYGCALPDNPGVYTKVCNYVDWIQDTIAAN
With B1, the “yield of the transamidation product with Arg-His-Ala-Lys(6-CF)-OH (HPLC)” value in data set [1] is “obtained in a yield of >99%”. Moreover, the “rate of reaction (initial rate of peptide consumption, HPLC)” value in data set [2] was “has a strong preference for a cleavage site comprising L, F or Y in position P1, R or K in position P1′ and His in position P2′”.
